In the supplement of paper PMC12855868:

B1: library; numbered along this chain (parent)
chain: MAAAGGARLLRAASAVLGGPAGRWLHHAGSRAGSSGLLRNRGPGGSAEASRSLSVSARARSSSEDKITVHFINRDGETLTTKGKVGDSLLDVVVENNLDIDGFGACEGTLACSTCHLIFEDHIYEKLDAITDEENDMLDLAYGLTDRSRLGCQICLTKSMDNMTVRVPETVADARQSIDVGKTS

Variants of: B1
Assay: scaled log2 fold change in cell abundance, elesclomol vs control (0 = silent mean, 1 = nonsense mean) (scaled log2 ratio); higher = higher viability under elesclomol (loss of FDX1 cuproptosis function)
Conditions: glucose 10 mM
[1] = with ABC1 FDX1 KO, elesclomol 5 nM, 14 days
[2] = with HEK293T FDX1 KO, elesclomol 40 nM, 11 days
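Further: variant abundance is its share of total variant reads in each endpoint sample, from next-generation sequencing of the integrated ORF PCR-amplified out of genomic DNA.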

G86I
scaled log2 fold change [1]: 0.576
scaled log2 fold change [2]: 0.0646

G86N
scaled log2 fold change [1]: 0.233

G86A
scaled log2 fold change [1]: 0.349
scaled log2 fold change [2]: 0.0692

G86V
scaled log2 fold change [1]: 0.654
scaled log2 fold change [2]: 0.478

G86K
scaled log2 fold change [1]: 0.242
scaled log2 fold change [2]: -0.0346

G86Y
scaled log2 fold change [1]: 0.0464
scaled log2 fold change [2]: 0.586

G86S
scaled log2 fold change [1]: 0.0131
scaled log2 fold change [2]: 0.985

G86L
scaled log2 fold change [1]: 0.171
scaled log2 fold change [2]: 0.00376

G86P
scaled log2 fold change [1]: 0.208
scaled log2 fold change [2]: 0.284

G86W
scaled log2 fold change [1]: 0.246

G86R
scaled log2 fold change [1]: 0.269
scaled log2 fold change [2]: -0.218

G86C
scaled log2 fold change [1]: 0.175
scaled log2 fold change [2]: 1.4

G86Q
scaled log2 fold change [1]: -0.2
scaled log2 fold change [2]: 0.928

G86H
scaled log2 fold change [1]: 0.239
scaled log2 fold change [2]: 0.453

G86T
scaled log2 fold change [1]: 0.117
scaled log2 fold change [2]: -0.144

G86M
scaled log2 fold change [1]: -0.125
scaled log2 fold change [2]: -0.231

G86D
scaled log2 fold change [1]: 0.248
scaled log2 fold change [2]: -0.689

G86F
scaled log2 fold change [1]: 0.287
scaled log2 fold change [2]: -0.571

G86E
scaled log2 fold change [1]: 0.115
scaled log2 fold change [2]: 0.852

S88E
scaled log2 fold change [1]: 0.289
scaled log2 fold change [2]: 0.37

S88A
scaled log2 fold change [1]: 0.0293
scaled log2 fold change [2]: 0.31

S88F
scaled log2 fold change [1]: 0.301

S88I
scaled log2 fold change [1]: 0.199

S88L
scaled log2 fold change [1]: 0.0552

S88T
scaled log2 fold change [1]: -0.996
scaled log2 fold change [2]: -0.234

S88Q
scaled log2 fold change [1]: 0.191
scaled log2 fold change [2]: -0.766

S88W
scaled log2 fold change [1]: 0.356
scaled log2 fold change [2]: -0.287

S88G
scaled log2 fold change [1]: 0.17
scaled log2 fold change [2]: 0.309

S88N
scaled log2 fold change [1]: 0.582

S88V
scaled log2 fold change [1]: -0.223
scaled log2 fold change [2]: 0.0665

S88C
scaled log2 fold change [1]: 0.057
scaled log2 fold change [2]: 1.32

G83T
scaled log2 fold change [1]: 0.0201
scaled log2 fold change [2]: -0.4

G83V
scaled log2 fold change [1]: 0.0583
scaled log2 fold change [2]: 0.224

G83W
scaled log2 fold change [1]: 0.275
scaled log2 fold change [2]: -0.151

G83S
scaled log2 fold change [1]: 0.0697
scaled log2 fold change [2]: -1.34

G83Y
scaled log2 fold change [1]: 0.73
scaled log2 fold change [2]: 0.383

L90E
scaled log2 fold change [1]: 0.187
scaled log2 fold change [2]: 0.205

L90I
scaled log2 fold change [1]: -0.268
scaled log2 fold change [2]: 0.924

L90G
scaled log2 fold change [1]: 0.46
scaled log2 fold change [2]: 0.288

L90A
scaled log2 fold change [1]: -0.423

L90F
scaled log2 fold change [1]: 0.00898
scaled log2 fold change [2]: -0.179

L90K
scaled log2 fold change [1]: 0.0261

L90C
scaled log2 fold change [1]: 0.079
scaled log2 fold change [2]: 0.931

L90H
scaled log2 fold change [1]: -0.379
scaled log2 fold change [2]: 1.81

L90D
scaled log2 fold change [1]: 0.478
scaled log2 fold change [2]: 0.245

D87M
scaled log2 fold change [1]: 0.055
scaled log2 fold change [2]: -0.441

D87V
scaled log2 fold change [1]: -0.164
scaled log2 fold change [2]: -0.704

D87P
scaled log2 fold change [1]: 0.439
scaled log2 fold change [2]: -0.0143

D87L
scaled log2 fold change [1]: -0.301
scaled log2 fold change [2]: -0.549

D87C
scaled log2 fold change [1]: -0.824
scaled log2 fold change [2]: -0.252

D87W
scaled log2 fold change [1]: -0.221
scaled log2 fold change [2]: -0.509

D87N
scaled log2 fold change [1]: -0.0848

D87K
scaled log2 fold change [1]: 0.34
scaled log2 fold change [2]: 0.127

D87F
scaled log2 fold change [1]: 0.195
scaled log2 fold change [2]: -0.393

D87Y
scaled log2 fold change [1]: -0.31
scaled log2 fold change [2]: -0.0378

D87H
scaled log2 fold change [1]: -0.183
scaled log2 fold change [2]: 0.121

D87S
scaled log2 fold change [1]: -0.493

D87R
scaled log2 fold change [1]: -0.147

D87Q
scaled log2 fold change [1]: -0.303
scaled log2 fold change [2]: 0.511

D87E
scaled log2 fold change [1]: -0.224
scaled log2 fold change [2]: 0.0766

D87G
scaled log2 fold change [1]: -0.161
scaled log2 fold change [2]: -0.147

D87T
scaled log2 fold change [1]: -0.14

D87I
scaled log2 fold change [1]: -0.274
scaled log2 fold change [2]: -0.421

D87A
scaled log2 fold change [1]: 0.0673

V85A
scaled log2 fold change [1]: 0.0788
scaled log2 fold change [2]: -0.325

V85H
scaled log2 fold change [1]: -0.166
scaled log2 fold change [2]: -0.307

V85Y
scaled log2 fold change [1]: -0.534
scaled log2 fold change [2]: -0.0166

V85L
scaled log2 fold change [1]: -0.101
scaled log2 fold change [2]: 0.47

V85P
scaled log2 fold change [1]: -0.0817
scaled log2 fold change [2]: -1.46

V85N
scaled log2 fold change [1]: -0.0121
scaled log2 fold change [2]: 0.0182

V85W
scaled log2 fold change [1]: 0.119
scaled log2 fold change [2]: 0.889

V85M
scaled log2 fold change [1]: 0.00542
scaled log2 fold change [2]: -0.0343

V85S
scaled log2 fold change [1]: 0.131
scaled log2 fold change [2]: -0.121

V85T
scaled log2 fold change [1]: -0.279
scaled log2 fold change [2]: -0.55

V85C
scaled log2 fold change [1]: -0.197
scaled log2 fold change [2]: -0.0853

V85G
scaled log2 fold change [1]: 0.265
scaled log2 fold change [2]: 0.288

V85D
scaled log2 fold change [1]: 0.12
scaled log2 fold change [2]: -0.189

V85K
scaled log2 fold change [1]: 0.192
scaled log2 fold change [2]: -0.177

V85I
scaled log2 fold change [1]: -0.161
scaled log2 fold change [2]: -0.597

V85R
scaled log2 fold change [1]: 0.266
scaled log2 fold change [2]: -0.792

V85E
scaled log2 fold change [1]: -0.055
scaled log2 fold change [2]: -0.248

V85F
scaled log2 fold change [1]: 0.217
scaled log2 fold change [2]: 1.05

V85Q
scaled log2 fold change [1]: 0.0746
scaled log2 fold change [2]: -0.0938

L89N
scaled log2 fold change [1]: 1.2
scaled log2 fold change [2]: 0.434

L89S
scaled log2 fold change [1]: 1.06
scaled log2 fold change [2]: 0.924

L89Q
scaled log2 fold change [1]: 1.64
scaled log2 fold change [2]: 0.508

L89D
scaled log2 fold change [1]: 1.11
scaled log2 fold change [2]: 1.26

L89K
scaled log2 fold change [1]: 1.05
scaled log2 fold change [2]: 1.47

L89V
scaled log2 fold change [1]: 0.313
scaled log2 fold change [2]: -0.151

L89G
scaled log2 fold change [1]: 0.853
scaled log2 fold change [2]: 0.301

L89M
scaled log2 fold change [1]: 0.256
scaled log2 fold change [2]: 0.404

L89Y
scaled log2 fold change [1]: 0.534
scaled log2 fold change [2]: 0.223

L89E
scaled log2 fold change [1]: 0.919
scaled log2 fold change [2]: 0.768

L89H
scaled log2 fold change [1]: 1.34
scaled log2 fold change [2]: 0.109

L89A
scaled log2 fold change [1]: -0.0423

L89W
scaled log2 fold change [1]: 0.552
scaled log2 fold change [2]: 1.33

L89C
scaled log2 fold change [1]: -0.261
scaled log2 fold change [2]: 0.257

L89F
scaled log2 fold change [1]: 0.706
scaled log2 fold change [2]: 0.454

L89T
scaled log2 fold change [1]: -0.121
scaled log2 fold change [2]: -0.104

L89R
scaled log2 fold change [1]: 1.16
scaled log2 fold change [2]: 0.853

L89P
scaled log2 fold change [1]: 0.89
scaled log2 fold change [2]: 0.172

K84I
scaled log2 fold change [1]: 0.197
scaled log2 fold change [2]: 1.03

K84A
scaled log2 fold change [1]: -0.0494
scaled log2 fold change [2]: 0.375

K84W
scaled log2 fold change [1]: 0.191
scaled log2 fold change [2]: -0.16

K84Y
scaled log2 fold change [1]: -0.449
scaled log2 fold change [2]: 0.782

K84R
scaled log2 fold change [1]: -0.138
scaled log2 fold change [2]: -0.784

K84E
scaled log2 fold change [1]: 0.218
scaled log2 fold change [2]: -0.39

K84S
scaled log2 fold change [1]: 0.112
scaled log2 fold change [2]: 0.32

K84D
scaled log2 fold change [1]: -0.0908
scaled log2 fold change [2]: 0.0439

K84N
scaled log2 fold change [1]: 0.0469
scaled log2 fold change [2]: 0.28

K84C
scaled log2 fold change [1]: 0.225
scaled log2 fold change [2]: 0.851

K84H
scaled log2 fold change [1]: 0.0255
scaled log2 fold change [2]: 0.273

K84V
scaled log2 fold change [1]: 0.289
scaled log2 fold change [2]: -0.902

K84L
scaled log2 fold change [1]: 0.349
scaled log2 fold change [2]: -0.439

K84G
scaled log2 fold change [1]: -0.452
scaled log2 fold change [2]: -0.00112

K84Q
scaled log2 fold change [1]: 0.0208
scaled log2 fold change [2]: -0.794

K84P
scaled log2 fold change [1]: 0.11
scaled log2 fold change [2]: 1.21

K84T
scaled log2 fold change [1]: -0.0915
scaled log2 fold change [2]: -0.906

K84M
scaled log2 fold change [1]: 0.138

K84F
scaled log2 fold change [1]: 0.195
scaled log2 fold change [2]: 0.127
